Test results as given in IntAct's records for PubMed 12692135.

B1: Tumor protein 63 (Homo sapiens), Q9H3D4-2 (parent)
chain: MLYLENNAQTQFSEPQYTNLGLLNSMDQQIQNGSSSTSPYNTDHAQNSVTAPSPYAQPSSTFDALSPSPAIPSNTDYPGPHSFDVSFQQSSTAKSATWTYSTELKKLYCQIAKTCPIQIKVMTPPPQGAVIRAMPVYKKAEHVTEVVKRCPNHELSREFNEGQIAPPSHLIRVEGNSHAQYVEDPITGRQSVLVPYEPPQVGTEFTTVLYNFMCNSSCVGGMNRRPILIIVTLETRDGQVLGRRCFEARICACPGRDRKADEDSIRKQQVSDSTKNGDGTKRPFRQNTHGIQMTSIKKRRSPDDELLYLPVRGRETYEMLLKIKESLELMQYLPQHTIETYRQQQQQQHQHLLQKQTSIQSPSSYGNSSPPLNKMNSMNKLPSVSQLINPQQRNALTPTTIPDGMGANIPMMGTHMPMAGDMNGLSPTQALPPPLSMPSTSHCTPPPPYPTDCSIVSFLARLGCSSCLDYFTTQGLTTIYQIEHYSMDDLASLKIPEQFRHAIWKGILDHRQLHEFSSPSHLLRTPSSASTVSVGSSETRGERVIDAVRFTLRQTISFPPRDEWNDFNFDMDARRNKQQRIKEEGE
B2: Tumor protein 63 (Homo sapiens), Q9H3D4 (parent)
chain: MNFETSRCATLQYCPDPYIQRFVETPAHFSWKESYYRSTMSQSTQTNEFLSPEVFQHIWDFLEQPICSVQPIDLNFVDEPSEDGATNKIEISMDCIRMQDSDLSDPMWPQYTNLGLLNSMDQQIQNGSSSTSPYNTDHAQNSVTAPSPYAQPSSTFDALSPSPAIPSNTDYPGPHSFDVSFQQSSTAKSATWTYSTELKKLYCQIAKTCPIQIKVMTPPPQGAVIRAMPVYKKAEHVTEVVKRCPNHELSREFNEGQIAPPSHLIRVEGNSHAQYVEDPITGRQSVLVPYEPPQVGTEFTTVLYNFMCNSSCVGGMNRRPILIIVTLETRDGQVLGRRCFEARICACPGRDRKADEDSIRKQQVSDSTKNGDGTKRPFRQNTHGIQMTSIKKRRSPDDELLYLPVRGRETYEMLLKIKESLELMQYLPQHTIETYRQQQQQQHQHLLQKQTSIQSPSSYGNSSPPLNKMNSMNKLPSVSQLINPQQRNALTPTTIPDGMGANIPMMGTHMPMAGDMNGLSPTQALPPPLSMPSTSHCTPPPPYPTDCSIVSFLARLGCSSCLDYFTTQGLTTIYQIEHYSMDDLASLKIPEQFRHAIWKGILDHRQLHEFSSPSHLLRTPSSASTVSVGSSETRGERVIDAVRFTLRQTISFPPRDEWNDFNFDMDARRNKQQRIKEEGE
partner: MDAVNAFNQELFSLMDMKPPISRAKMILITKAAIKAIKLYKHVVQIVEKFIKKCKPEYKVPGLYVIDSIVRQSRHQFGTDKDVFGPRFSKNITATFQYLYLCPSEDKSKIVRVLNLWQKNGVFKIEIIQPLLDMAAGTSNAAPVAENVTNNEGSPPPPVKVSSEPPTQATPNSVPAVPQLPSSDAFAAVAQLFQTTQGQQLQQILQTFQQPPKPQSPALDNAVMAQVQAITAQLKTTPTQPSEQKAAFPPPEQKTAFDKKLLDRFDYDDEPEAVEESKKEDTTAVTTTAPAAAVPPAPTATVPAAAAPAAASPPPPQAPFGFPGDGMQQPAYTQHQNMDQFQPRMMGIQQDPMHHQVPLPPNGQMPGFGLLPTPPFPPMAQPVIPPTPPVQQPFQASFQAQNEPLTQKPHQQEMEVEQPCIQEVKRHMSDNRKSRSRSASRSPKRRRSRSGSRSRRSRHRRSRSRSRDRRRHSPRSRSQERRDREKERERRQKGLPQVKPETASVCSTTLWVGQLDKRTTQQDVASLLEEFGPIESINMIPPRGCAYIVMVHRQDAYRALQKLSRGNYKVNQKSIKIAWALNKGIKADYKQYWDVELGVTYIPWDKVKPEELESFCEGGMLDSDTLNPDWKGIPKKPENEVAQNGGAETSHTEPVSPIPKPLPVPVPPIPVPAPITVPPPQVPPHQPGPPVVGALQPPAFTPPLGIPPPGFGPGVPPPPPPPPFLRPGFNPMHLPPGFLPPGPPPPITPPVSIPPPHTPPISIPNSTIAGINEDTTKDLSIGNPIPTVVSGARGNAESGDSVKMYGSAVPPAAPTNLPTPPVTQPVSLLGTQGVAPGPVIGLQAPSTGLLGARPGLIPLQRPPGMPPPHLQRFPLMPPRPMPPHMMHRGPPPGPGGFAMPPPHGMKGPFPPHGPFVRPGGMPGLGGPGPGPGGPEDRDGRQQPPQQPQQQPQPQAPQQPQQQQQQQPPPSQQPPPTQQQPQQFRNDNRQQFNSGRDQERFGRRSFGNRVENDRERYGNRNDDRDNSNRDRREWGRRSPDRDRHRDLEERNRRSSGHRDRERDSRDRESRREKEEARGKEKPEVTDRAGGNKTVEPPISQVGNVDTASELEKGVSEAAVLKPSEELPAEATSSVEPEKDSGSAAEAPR
B3: Tumor protein 63 (Homo sapiens), Q9H3D4-1 (parent)
chain: B2 chain

Variants of: B1
Settings: with roaa_human HNRNPAB
Target sequence in this assay (Q99729 whole entry): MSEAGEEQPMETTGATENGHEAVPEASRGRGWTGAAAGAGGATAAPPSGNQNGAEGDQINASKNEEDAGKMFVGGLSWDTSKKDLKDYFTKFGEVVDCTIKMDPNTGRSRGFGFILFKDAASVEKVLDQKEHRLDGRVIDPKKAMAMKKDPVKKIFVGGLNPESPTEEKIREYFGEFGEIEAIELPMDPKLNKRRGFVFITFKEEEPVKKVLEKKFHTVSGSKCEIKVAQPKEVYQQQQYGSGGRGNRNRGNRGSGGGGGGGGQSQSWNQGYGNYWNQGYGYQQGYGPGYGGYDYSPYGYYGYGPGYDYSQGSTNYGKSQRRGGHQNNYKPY

| effect of a mutation on the interaction | Variant |
| --- | --- |
| disrupting interaction strength | C467V |
| disrupting interaction strength | I482T |
| disrupting interaction strength | Q481L |
| disrupting interaction strength | G475V |

Variants of: B1
Settings: with roaa_human HNRNPAB
Remark: another data set of the same source
Target sequence in this assay (Q99729 whole entry): as above

| effect of a mutation on the interaction | Variant |
| --- | --- |
| disrupting interaction strength | L459F |

Variants of: B2
Settings: with scaf4_human SCAF4, O95104

| effect of a mutation on the interaction | Variant |
| --- | --- |
| disrupting interaction strength | L553F |

Variants of: B3
Settings: with roaa_human HNRNPAB
Target sequence in this assay (Q99729 whole entry): as above

| effect of a mutation on the interaction | Variant |
| --- | --- |
| disrupting interaction strength | G569V |
| disrupting interaction strength | L553F |
| disrupting interaction strength | I576T |
| disrupting interaction strength | C561V |
| disrupting interaction strength | Q575L |

Variants of: B3
Settings: with rack1_human RACK1, P63244

| effect of a mutation on the interaction | Variant |
| --- | --- |
| with no effect | L553F |

Variants of: B3
Settings: with roaa_human HNRNPAB
Remark: another data set of the same source
Target sequence in this assay (Q99729 whole entry): as above

| effect of a mutation on the interaction | Variant |
| --- | --- |
| disrupting interaction strength | L553F |
